Two molecules from doi:10.1101/738179, “Rad51 Interaction Analysis Reveals a Functional Interplay Among Recombination Auxiliary Factors” (bioRxiv, 2019) can be followed below.

The chains are these.
B1: Swi5-Sfr1 (wild type, full-length Sfr1) (complex, S. pombe)
chain 1: MEKSQLESRVHLLEQQKEQLESSLQDALAKLKNRDAKQTVQKHIDLLHTYNEIRDIALGMIGKVAEHEKCTSVELFDRFGVNGSE
chain 2: MSQTINSELNENATSQCKEDLKVSLSESDLRDSQGQLGIENPPKCNNSGNHSDNLGFIEQSETVHPENEKALTPDLRDTKIHTSLPITTPFSKKRAREAKNILLKPFKSPLRQTASPQVADTNLKPSLAVTNLNSDETNTSSEPVTSPLRTTPNSIKRQKRLFKSPISNCLNPKSDPEITQLLSRRLKLEKEVRNLQEQLITAETARKVEAKNEDKDLQTLIQKWKNAAQQAAEVLFKPMAERIRLAGGVTQSFRIEEGENKGQIQEVRTEFTMSMFLNQFGVPVHLMSFDEENGDWKS
B2: Rad51 (natural protein, S. pombe, UniProt P36601 1-365, looked up)
chain: MADTEVEMQVSAADTNNNENGQAQSNYEYDVNVQDEEDEAAAGPMPLQMLEGNGITASDIKKIHEAGYYTVESIAYTPKRQLLLIKGISEAKADKLLGEASKLVPMGFTTATEYHIRRSELITITTGSKQLDTLLQGGVETGSITELFGEFRTGKSQICHTLAVTCQLPIDMGGGEGKCLYIDTEGTFRPVRLLAVADRYGLNGEEVLDNVAYARAYNADHQLELLQQAANMMSESRFSLLVVDSCTALYRTDFSGRGELSARQMHLARFMRTLQRLADEFGIAVVITNQVVAQVDGISFNPDPKKPIGGNILAHSSTTRLSLRKGRGEQRICKIYDSPCLPESEAIFAINSDGVGDPKEIIAPV
notes: Rad51, RecA-family recombinase of S. pombe; Covalently attached to Affi-gel 15 in the pull-down; Multimer in solution by SEC; also called Affi-Rad51

The target in assay [1] is B2. In words: cell-based or functional assay.
Assay [2] has as its target B1. Nature of the assay: pull-down; Rad51 covalently attached to Affi-gel 15 (2 µg protein/µL gel); Swi5-Sfr1 variant in Affi-gel buffer (25 mM HEPES-KOH pH 7.5, 150 mM NaCl, 3.5 mM MgCl2, 0.5 mM DTT, 0.05 µg/µL BSA, 10% glycerol, 0.05% igepal CA-630); 30 °C 30 min; Sfr1 detected by immunoblot; Affi-BSA as control. The note with it: both partners purified. Background: In western blotting, separated proteins are transferred to a membrane and probed.

On to B1, for which the “Rad51-dependent ATP turnover, fold increase at a Swi5-Sfr1:Rad51 ratio of 1:20 (0.25 µM Swi5-Sfr1, 5 µM Rad51)” value in assay [1] was 1.85 fold.

For the molecule B2, in assay [2], the binding result is “binds”.
